{"source": "patent US20130156764A1", "about": "“NEUTRALIZATION OF FLT3 LIGAND AS A LEUKEMIA THERAPY” (The Johns Hopkins University, priority 2010, published 2013)", "key": {"[1]": {"tested_on": "TF1/ITD and TF1/TKD cells", "test": "Apoptosis (Annexin V/7AAD) and survival of TF1/ITD and TF1/TKD cells with FL", "format": "cell-based", "conditions": "for survival (viable cell numbers): serum free medium; for apoptotic population: serum-free, 48 hours, presence of FL", "procedure": "Evaluation of apoptosis was performed by annexin V/7-AAD staining according to the recommendations of the manufacturer (Becton Dickinson, San Jose, Calif.). After serum starvation, 5×10^5 cells were washed with cold PBS and re-suspended in 100 μL of binding buffer. Following incubation with 5 μL of annexin V-PE and 5 μL of 7-AAD in the dark for 15 minutes at room temperature, cells were analyzed by flow cytometry (FACSort, Becton Dickinson) with Cell Quest software (Becton Dickinson). Compensation was performed with samples stained with either annexin V-PE or 7-AAD alone.\n(§1) 2×10^4 cells in 100 μl serum-free medium were plated into triplicate wells of 96-well plates. Survival was assessed by MTT assay (Roche, Indianapolis, Ind.) and viable cell number counting by trypan blue (GIBCO, Rockville, Md.) exclusion according to the manufacturer's instructions.\n(§2) The possibility of further activation of FLT3 mutant receptors by exogenous FL was also tested in cell lines in which FL autocrine, paracrine, or intracrine stimulation of FLT3 receptor might exist. […] TF1 cells expressing FLT3 mutant receptors were starved for 16 hours in serum-free medium and washed once with PBS to deplete soluble FL (either produced by the cells or contained in the serum). These cells were then stimulated with exogenous FL for 15 minutes. More than 2-fold enhancement of FLT3 phosphorylation was detected in both TF1/ITD and TF1/TKD cell lines (FIG. 12A). […] To assess the functional effect of exogenous FL, TF1/ITD and TF1/TKD cells were cultured in serum-free medium in the absence and presence of FL for 48 hours. Apoptosis was assessed by Annexin V and 7AAD staining followed by FACS analysis. […] There was no change of cell cycle status in response to FL in these cells (data not shown)."}, "[2]": {"tested_on": "STAT5 and AKT phosphorylation", "test": "FL stimulation, downstream signaling immunoblot in TF1/ITD and TF1/TKD cells", "format": "cell-based", "procedure": "(§3) TF1 and BaF3 cells were transfected with pCINeo constructs containing either FLT3/ITD or FLT3/TKD mutation by electroporation (Bio-Rad, Hercules, Calif.). Stable transfectants were then selected by limiting dilution in 96-well plates with 1 mg/mL G418 (Invitrogen, Carlsbad, Calif.).\nas §2"}, "[3]": {"tested_on": "primary AML blast samples harboring a FLT3/ITD mutation", "test": "MTT assay in primary AML blast samples with FLT3/ITD mutation with FL", "format": "cell-based, human", "conditions": "addition of exogenous FL, all 3 samples", "excerpt": "Leukemia cell specimens were provided by the Sidney Kimmel Cancer Center at Johns Hopkins Tumor and Cell Procurement Bank. All patients gave informed consent according to the Declaration of Helsinki. The specimens were obtained by Ficoll purifying mononuclear cells from the peripheral blood patients with FLT3/ITD AML. The mononuclear cells were aliquoted and stored frozen in liquid nitrogen in bovine serum with 10% DMSO for repeated use. Prior to each use, aliquots of these blasts were thawed rapidly into warm culture medium, incubated for 12 hours, and then recentrifuged over Ficoll to eliminate cells dying from the freeze-thaw process. Using this method, blasts were obtained that maintained satisfactory viability (as determined by Trypan blue exclusion) and responsiveness to cytotoxic agents in culture over 72 hours.\nCytotoxicity was assessed using an MTT (Dimethyl-thiazol diphenyl tetrazolium bromide) assay. In selected cases, an Annexin-V binding apoptosis assay was also used to confirm that the cytotoxic effect observed (or lack thereof) was associated with an equivalent degree of apoptosis. MTT (Roche, Indianapolis, Ind.) and Annexin V (Pharmingen, San Diego, Calif.) assays were performed as described previously.\nIn three primary samples from AML patients with FLT3/ITD mutations (FIG. 8), a similar pattern of response to FL and FLT3 inhibition was observed."}, "[4]": {"tested_on": "STAT5 and AKT phosphorylation", "test": "FL stimulation, downstream signaling in MV411 cells", "format": "cell-based, human"}, "[5]": {"tested_on": "primary AML blasts expressing homozygous FLT3/ITD mutations", "test": "Survival (MTT) of primary AML blasts with FL", "format": "cell-based, human", "conditions": "complete medium, 4 days", "procedure": "as §1\n(§4) To study whether further activation of mutant FLT3 receptors in response to FL also occurs in primary cells, experiments were carried on primary AML blasts expressing homozygous FLT3/ITD mutations (i.e., no detectable wild type FLT3 by PCR). The blasts were stimulated with 100 ng/mL FL. […] The survival of AML blasts was assessed by culturing them in complete medium with and without FL for 4 days."}, "[6]": {"tested_on": "FLT3/ITD in primary AML blasts", "test": "FL stimulation, FLT3 phosphorylation in primary AML blasts with homozygous FLT3/ITD", "format": "cell-based, human", "conditions": "100 ng/mL FL", "procedure": "as §4"}, "[7]": {"tested_on": "FLT3/ITD and FLT3/TKD in BaF3 cells", "test": "FL stimulation, FLT3 phosphorylation in BaF3/ITD and BaF3/TKD cells", "format": "cell-based", "procedure": "as §3\n(§5) BaF3 is another cell line lacking expression of endogenous FLT3. BaF3 cells transfected with mutant forms of FLT3 were starved in serum-free medium for 16 hours and washed with PBS before FL stimulation. […] Changes of other FLT3 downstream signals were not observed. An MTT survival assay was performed in BaF3/ITD and BaF3/TKD cells cultured in serum-free medium in the presence and absence of FL for 4 days. […] The effect was also confirmed by counting viable cell numbers by trypan blue exclusion (FIG. 13C, P<0.05). These findings indicate that FL stimulation prolongs the survival of cells expressing FLT3 mutants."}, "[8]": {"tested_on": "AKT and MAPK phosphorylation", "test": "FL stimulation, downstream signaling immunoblot in BaF3/ITD and BaF3/TKD cells", "format": "cell-based", "procedure": "as §3, §5"}, "[9]": {"tested_on": "BaF3/ITD and BaF3/TKD cells", "test": "Survival (MTT, trypan blue) of BaF3/ITD and BaF3/TKD cells with FL", "format": "cell-based", "conditions": "serum-free, 4 days", "procedure": "as §1, §5"}}}
{"molecule": "FL: Recombinant human FL (fms-related tyrosine kinase ligand) purchased from PeproTech; SEQ ID NO: 1 (protein, listed as Homo sapiens) MTVLAPAWSPTTYLLLLLLLSSGLSGTQDCSFQHSPISSDFAVKIRELSDYLLQDYPVTVASNLQDEELCGGLWRLVLAQRWMERLKTVAGSKMQGLLERVNTEIHFVTKCAFQPPPSCLRFVQTNISRLLQETSEQLVALKPWITRQNFSRCLELQCQPDSSTLPPPWSPRPLEATAPTAPQPPLLLLLLLPVGLLLLAAAWCLHWQRTRRRTPRPGEQVPPVPSPQDLLLVEH", "values": [{"measurement": "cell cycle status in response to FL", "setting": "[1]; TF1/ITD and TF1/TKD", "value": "no change"}, {"measurement": "survival (viable cell numbers)", "setting": "[1]; TF1/ITD", "value": "increased the survival"}, {"measurement": "apoptotic population", "setting": "[1]; TF1/ITD", "value": 49.54, "unit": "%"}, {"measurement": "survival (viable cell numbers)", "setting": "[1]; TF1/TKD", "value": "no significant difference"}, {"measurement": "apoptotic population", "setting": "[1]; TF1/TKD", "value": 31.63, "unit": "%"}, {"measurement": "AKT phosphorylation and AKT protein expression", "setting": "[2]; TF1/ITD and TF1/TKD after FL stimulation", "value": "Slightly increased"}, {"measurement": "STAT5 phosphorylation increase", "setting": "[2]; both TF1/ITD and TF1/TKD", "value": 1.8, "unit": "fold"}, {"measurement": "metabolic activity of the sample in culture medium", "setting": "[3]", "value": "increased"}, {"measurement": "phosphorylation of FLT3 downstream signaling, including STAT5 and AKT", "setting": "[4]", "value": "Slightly enhanced phosphorylation"}, {"measurement": "patient samples with increased survival of AML blasts", "setting": "[5]", "value": "three of four"}, {"measurement": "FLT3 phosphorylation", "setting": "[6]", "value": "enhanced FLT3 phosphorylation"}, {"measurement": "FLT3 phosphorylation", "setting": "[7]", "value": "increased FLT3 phosphorylation"}, {"measurement": "increase of phosphorylation of AKT", "setting": "[8]; BaF3/ITD", "value": 1.3, "unit": "fold"}, {"measurement": "MAPK phosphorylation", "setting": "[8]; BaF3/ITD and BaF3/TKD", "value": "increase of MAPK phosphorylation"}, {"measurement": "increase of phosphorylation of AKT", "setting": "[8]; BaF3/TKD", "value": 2.2, "unit": "fold"}, {"measurement": "survival (MTT, confirmed by trypan blue)", "setting": "[9]", "value": "increased survival"}]}
